Measured values taken from the supplement of paper PMC10724198.
± gives the standard deviation of the averaged measurements.

These sequences were tested on Saccharomyces cerevisiae (assay: protein stability index of tFT-peptide fusion (C-terminal peptide) (PSI (0-1 scale)); higher = more stable (slower turnover)). Details: genetic background: wild type; temperature: 30 C.
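Further: PSI is a weighted mean of sequencing reads over stability bins, variants kept only with over 10 reads, mCherry proximal and sfGFP distal, peptide attached via GGGS linker.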

Sequence | protein stability index
NGCCLVHAETGP | 0.676 ± 0.032
NGILRGATYQDV | 0.77 ± 0.067
NGLGKGKTKGEI | 0.625 ± 0.1
NGMVDDQSEVNR | 0.682 ± 0.074
NHRANSNPRLRY | 0.731 ± 0.0095
NIAPPNHASIVL | 0.695 ± 0.014
NINNKRNHIHLK | 0.648 ± 0.075
NIRSRKYMLRKS | 0.744 ± 0.085
NKKDHTLTKKRT | 0.661 ± 0.063
NKKFTKQTCKPK | 0.663 ± 0.0011
NKKKYEIKLIME | 0.641 ± 0.06
NKKNKKRIGRNT | 0.736 ± 0.034
NKNTEMNKTQWR | 0.702 ± 0.03
NKRKKKRTEPQP | 0.661 ± 0.013
NKTKKKKKKKRG | 0.659 ± 0.061
NKTRRCTAHVGG | 0.679 ± 0.054
NKYRKNMKSSVP | 0.671 ± 0.019
NLGFTTSWSFDL | 0.766 ± 0.066
NLMTPAWTNFSS | 0.756 ± 0.077
NLRESRSLKGVI | 0.73 ± 0.016
NLRSSTSKNNKR | 0.659 ± 0.079
NLTKTLNNDIIK | 0.68183 ± 0.00011
NLVSCFSSCGSV | 0.628 ± 0.028

Sequence | protein stability index
NLYLEKLLHSEP | 0.715 ± 0.018
NMGRCEGGKTAR | 0.643 ± 0.016
NMIIPEAVSLSL | 0.672 ± 0.026
NMQRKSRNQIID | 0.707 ± 0.074
NNYRKKKHNYKK | 0.697 ± 0.011
NPGGRPKNTINP | 0.649 ± 0.11
NPPPPAHYSRPP | 0.73 ± 0.031
NPSRASAWPHVH | 0.607 ± 0.061
NRGHWECIRVQR | 0.582 ± 0.059
NRLVQNRQVQLY | 0.682 ± 0.014
NRLVRLSQGGRE | 0.668 ± 0.019
NRQNNYANDIQK | 0.713 ± 0.045
NRTPTPNQTPPT | 0.6798 ± 0.0048
NRYRKNIKKRKK | 0.617 ± 0.028
NSIHRTRPKKII | 0.641 ± 0.0048
NSRMSRYTTPYG | 0.68054 ± 0.00052
NTCGYGRAIKST | 0.687 ± 0.016
NTDPAKRNHPRK | 0.71379 ± 0.00067
NTDSIKKQKKKK | 0.675 ± 0.019
NTTCGVEQKEDK | 0.649 ± 0.014
NVALPLSLLFGL | 0.633 ± 0.087
NVGACRVMKTVY | 0.6876 ± 0.003
NVLNLTDTKETL | 0.652 ± 0.046

Sequence | protein stability index
NYRGEKYDKREH | 0.569 ± 0.11
PAAPFFPSLRLL | 0.711 ± 0.03
PAASPVDEKVRL | 0.633 ± 0.016
PAEGVVGGKCYV | 0.685 ± 0.092
PAFCLTRAPSTQ | 0.72 ± 0.071
PAFPPPLPRRFL | 0.693 ± 0.23
PAHLFVPSSLFR | 0.702 ± 0.042
PALPNNVQCDCE | 0.705 ± 0.073
PALPPRLPPPPL | 0.602 ± 0.019
PALSVPPLLPPP | 0.604 ± 0.0071
PAPAPPSHFQER | 0.717 ± 0.043
PAPAVPPQTTPM | 0.6693 ± 0.001
PAPFPAPPTHGP | 0.7165 ± 0.0061
PAPHPPIPHQPP | 0.532 ± 0.023
PAPHPRLTPIFL | 0.749 ± 0.11
PAPPALPFHCPR | 0.654 ± 0.075
PAPPLLPPPSPP | 0.63 ± 0.027
PAPPPHSAPPLP | 0.739 ± 0.024
PAPPPPPPALLP | 0.677 ± 0.067
PAPPPSPPPRLA | 0.67 ± 0.075
PAPTPAPNPNPH | 0.74 ± 0.11
PARGPTPHIVPR | 0.667 ± 0.053
PARSAGPLNARS | 0.758 ± 0.013

Sequence | protein stability index
PASGHLPPPLSP | 0.641 ± 0.064
PASLPPRAPPPL | 0.664 ± 0.019
PASRIGGALPGG | 0.604 ± 0.03
PASYLSSPLRPP | 0.667 ± 0.046
PATKQFLLRGGR | 0.713 ± 0.0079
PAVLLGPCARVP | 0.699 ± 0.04
PAVPPGGDPTCP | 0.689 ± 0.0085
PCARLAGSPLPT | 0.688 ± 0.021
PCCYAGLHFFLG | 0.626 ± 0.068
PCLLANFFFFPA | 0.653 ± 0.09
PCLSLSFPPLPH | 0.736 ± 0.034
PCLSRPSTPPSS | 0.674 ± 0.036
PCPETPLLTRAA | 0.651 ± 0.0094
PCPFSSPPPLTH | 0.763 ± 0.053
PCSPRLPPFPSP | 0.683 ± 0.017
PCTRIPPLDSPL | 0.718 ± 0.058
PDPHTLTPTGHP | 0.71 ± 0.026
PDSAGAALSLSS | 0.695 ± 0.027
PDSIVACGPVGR | 0.702 ± 0.043
PDTVRALMRGYK | 0.721 ± 0.016
PEGPGAGRGEHN | 0.686 ± 0.044
PEHGPWLFKGFF | 0.653 ± 0.025
PEILSLDPLPSL | 0.662 ± 0.018

Sequence | protein stability index
PESGPVRLRTPP | 0.624 ± 0.029
PESPNCRRTRAL | 0.661 ± 0.031
PFAHPPRLPLFP | 0.742 ± 0.096
PFAHSATFLSLG | 0.774 ± 0.052
PFAPPPRPGPFP | 0.697 ± 0.085
PFARPPPSPSPR | 0.707 ± 0.012
PFCLPRPVRGVL | 0.728 ± 0.1
PFCTRRSVRYRS | 0.719 ± 0.049
PFCVALVDVGFW | 0.564 ± 0.029
PFFFLPPSRPRP | 0.671 ± 0.023
PFGPRLTQRSRP | 0.697 ± 0.039
PFHSPLMPAHSH | 0.764 ± 0.049
PFIPRFFSPCPL | 0.673 ± 0.018
PFLGHCPPTPPP | 0.732 ± 0.044
PFLLDSMRALGL | 0.737 ± 0.082
PFLLFVSSTCPL | 0.605 ± 0.024
PFPPHSPPSAPS | 0.697 ± 0.0093
PFPQVPFPRLAY | 0.681 ± 0.066
PFPSYLSPLGPS | 0.734 ± 0.037
PFRFSPFPLPLP | 0.695 ± 0.023
PFSIVRRSSFAP | 0.659 ± 0.082
PFSTVDLATAYP | 0.712 ± 0.017
PFVFRPGPVPRV | 0.643 ± 0.1

Sequence | protein stability index
PFWGKWVPSSYL | 0.7126 ± 0.0053
PFYLPPSTPPLL | 0.739 ± 0.0076
PGCLMGSRGFSN | 0.785 ± 0.18
PGDFSWAQCLFP | 0.752 ± 0.048
PGDSALVLVTPQ | 0.703 ± 0.069
PGFEPHLKLCAA | 0.654 ± 0.042
PGGRTVLCGTVT | 0.651 ± 0.0044
PGGSVYKPLATA | 0.644 ± 0.071
PGLAGGASQEGR | 0.58 ± 0.085
PGLLPTPSSPVP | 0.821 ± 0.032
PGLRRHPPPPPP | 0.739 ± 0.071
PGMTILETTIMD | 0.691 ± 0.015
PGPSVRSWHPMD | 0.69 ± 0.082
PGRGRQGSGIGM | 0.671 ± 0.062
PGRSRGGPPERR | 0.6386 ± 0.0035
PGTEVSDTLEVL | 0.6894 ± 0.0045
PGTRNATPRRQP | 0.707 ± 0.04
PGVIFRLPSCFV | 0.652 ± 0.061
PHAHTAPPPVPP | 0.601 ± 0.017
PHAPTAGPFPLP | 0.783 ± 0.021
PHILMSFGSPLS | 0.729 ± 0.018
PHLLRRPPTQRH | 0.633 ± 0.049
PHLSPPGLPTTP | 0.685 ± 0.055

Sequence | protein stability index
PHNSARSLPLHF | 0.717 ± 0.052
PHPCPTPPPLAP | 0.644 ± 0.043
PHPLPLPPPVAP | 0.711 ± 0.031
PHPNHRGPKGAN | 0.686 ± 0.032
PHPPCRPYPAGS | 0.701 ± 0.031
PHPPPLTQTPHD | 0.704 ± 0.014
PHPPPPPPALTP | 0.704 ± 0.037
PHPSPSSPPLLP | 0.657 ± 0.043
PHPVPPRLPFPS | 0.747 ± 0.038
PHQPRDGSFHGT | 0.653 ± 0.011
PHRLPPLPNPLH | 0.693 ± 0.082
PHRSLHTPTLCS | 0.686 ± 0.16
PHSLLPSSAPRN | 0.696 ± 0.024
PHTHHLPPPNCP | 0.679 ± 0.04
PHYLPHAPHGAL | 0.704 ± 0.037
PIGAFLSFWGQW | 0.828 ± 0.087
PIPPESLHPDHN | 0.83 ± 0.038
PISCVLGFAFPS | 0.708 ± 0.1
PISKLCLTSYEY | 0.697 ± 0.021
PITLRRRSRPPT | 0.692 ± 0.052
PKEQTHKKQHNI | 0.56 ± 0.039
PKNPRSTNGQLS | 0.67 ± 0.055
